Test in all cases: cell-based or functional assay
Assay [1] deals with human His6-Gαi2 (expressed in Sf9 cells) (human) (UniProt P04899).
The target in assay [2] is GPA1(1-41)-Gα16(S270P) (GPA1-human Gα16 fusion construct) (yeast; human).
Assay [3] addresses GPA1(1-41)-Gαi2 chimera (first 41 amino acids of yeast Gpa1 fused to amino acids 36-356 of human Gαi2) (yeast; human) (UniProt P08539).
In assay [4] the target is GPA1(1-41)-Gαi3 (GPA1-human Gαi3 fusion construct) (yeast; human) (UniProt P08539).
Another assay concerns the target rat Gαs (rat) (UniProt P63095).
A further assay deals with T1, yeast GPA1 (yeast) (UniProt P08539).
T1 sequence (looked up): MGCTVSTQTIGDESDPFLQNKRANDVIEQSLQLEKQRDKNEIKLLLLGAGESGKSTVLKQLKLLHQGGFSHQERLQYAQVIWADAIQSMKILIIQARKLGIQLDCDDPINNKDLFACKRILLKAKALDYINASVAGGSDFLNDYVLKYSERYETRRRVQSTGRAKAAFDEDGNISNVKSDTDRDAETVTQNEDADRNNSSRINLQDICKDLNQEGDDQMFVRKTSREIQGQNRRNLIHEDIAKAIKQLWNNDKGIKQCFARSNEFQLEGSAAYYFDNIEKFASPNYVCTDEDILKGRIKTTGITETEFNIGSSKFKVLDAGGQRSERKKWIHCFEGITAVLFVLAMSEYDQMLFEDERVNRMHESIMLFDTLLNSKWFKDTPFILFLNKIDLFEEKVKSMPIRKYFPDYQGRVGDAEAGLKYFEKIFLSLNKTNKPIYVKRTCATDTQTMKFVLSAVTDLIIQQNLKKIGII

Drawing on patent US20040180375A1, this text covers GTPγS binding to purified Gα (filter binding of GTPγ35S, 40 min) and β-galactosidase activity (FUS1p-lacZ reporter in yeast, AGS1, galactose) (relative β-galactosidase activity) for two molecules.

Sequence of human His6-Gαi2 (expressed in Sf9 cells) (human) (P04899 whole entry, the tested form may be a part): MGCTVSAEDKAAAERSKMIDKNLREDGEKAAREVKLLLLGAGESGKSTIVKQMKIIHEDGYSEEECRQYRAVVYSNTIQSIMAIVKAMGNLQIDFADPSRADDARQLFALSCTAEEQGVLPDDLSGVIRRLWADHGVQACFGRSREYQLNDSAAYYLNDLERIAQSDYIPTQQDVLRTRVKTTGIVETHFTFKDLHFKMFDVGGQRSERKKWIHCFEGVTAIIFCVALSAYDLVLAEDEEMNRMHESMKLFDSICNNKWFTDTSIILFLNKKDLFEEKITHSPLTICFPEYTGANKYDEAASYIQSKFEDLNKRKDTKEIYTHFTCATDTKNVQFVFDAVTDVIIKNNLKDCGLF
Sequence of rat Gαs (rat) (P63095 whole entry): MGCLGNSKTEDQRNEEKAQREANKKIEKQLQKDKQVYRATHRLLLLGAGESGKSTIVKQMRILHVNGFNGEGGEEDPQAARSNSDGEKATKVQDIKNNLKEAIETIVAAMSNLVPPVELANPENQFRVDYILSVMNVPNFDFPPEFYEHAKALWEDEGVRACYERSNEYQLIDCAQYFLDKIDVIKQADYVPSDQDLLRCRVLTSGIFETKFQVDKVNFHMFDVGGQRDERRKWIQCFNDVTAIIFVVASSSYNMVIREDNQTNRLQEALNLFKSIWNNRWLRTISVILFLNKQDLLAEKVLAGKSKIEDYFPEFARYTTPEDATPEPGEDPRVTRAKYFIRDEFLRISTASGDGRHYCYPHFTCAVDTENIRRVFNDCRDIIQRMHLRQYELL

B1: GST-AGS1 (N-terminal GST fusion of AGS1, expressed in yeast from the CUP1 promoter on plasmid pYEX-4T1) (protein, not shown: a dimerising Fc or GST)
chain: MKLAAMIKKMCPSDSELSIPAKNCYRMVILGSSKVGKTAIVSRFLTGRFEDAYTPTIEDFHRKFYSIRGEVYQLDILDTSGNHPFPAMRRLSILTGDVFILVFSLDNRDSFEEVQRLRQQILDTKSCLKNKTKENVDVPLVICGNKGDRDFYREVDQREIEQLVGDDPQRCAYFEISAKKNSSLDQMFRALFAMAKLPSEMSPDLHRKVSVQYCDVLHKKALRNKKLLRAGSGGGGGDPGDAFGIVAPFARRPSVHSDLMYIREKASAGSQAKDKERCVIS
Consider B1, for which, in assay [1], the GTPγS binding to purified Gα (filter binding of GTPγ35S, 40 min) is 25%.

B2: AGS1 (Activator of G protein Signaling, human, 281 amino acids) (protein)
chain: B1 chain
As for B2, the β-galactosidase activity (FUS1p-lacZ reporter in yeast, AGS1, galactose) (relative β-galactosidase activity) in assay [2] amounted to 22.5; in assay [3], 125; in assay [4] it was 63.3; in the assay with rat Gαs (rat), 6.4; with yeast GPA1 (yeast), 7.6.
